# Results published in the RNAGym collection of RNA variant scans (doi:10.7554/elife.90254).
# B1: LINE1-full (parent)
# chain: UACGUAGGUGGUUUUCCCCUGAUAGUGCUAAGGGGGCCUGGAAGUUUGGACUGGGCAGAGCUCAACACAGCGUGGCAAAGUGGCUGUGGCUAGACUGCCUCUCUGGAUUCCUCGUCACUCAGCAGGGCAUCUCUGAGAGAAAUGCC
# Variants of: B1
# Test: self-cleavage, relative activity (ratio to wild type); higher = more cleavage; in vitro, sequencing; the parent is a self-cleaving ribozyme
row,Variant,self-cleavage
1,U12A U109A,0.65
2,U12A U134A,0.6
3,U12A U134C,0.73
4,U12C A22G,1.64
5,U12C A24G,1.13
6,U12C A30G,0.87
7,U12C A30U,0.53
8,U12C A42U,1
9,U12C A43C,1.45
10,U12C A43G,1.33
11,U12C A57U,0.22
12,U12C A59U,0.13
13,U12C A64C,0.7
14,U12C A64U,1.53
15,U12C A65G,0.15
16,U12C A67C,0.09
17,U12C A67G,0.77
18,U12C A67U,0.21
19,U12C A69C,0.09
20,U12C A78C,2.54
21,U12C A78G,0.95
22,U12C A92C,0.81
23,U12C A92G,0.09
24,U12C A92U,0.56

row,Variant,self-cleavage
1,U12C A94U,0.38
2,U12C A107C,1.53
3,U12C A107U,0.66
4,U12C A117U,1.28
5,U12C A121G,1.74
6,U12C A121U,1.11
7,U12C A124G,1.23
8,U12C A129G,1.4
9,U12C A136G,1.41
10,U12C A138G,1.37
11,U12C A140G,1.2
12,U12C A140U,1.24
13,U12C A141G,1.5
14,U12C A141U,0.87
15,U12C A142C,1.38
16,U12C A142U,0.91
17,U12C C18G,2.1
18,U12C C18U,1.28
19,U12C C19A,0.85
20,U12C C28U,0.74
21,U12C C68U,0.35
22,U12C C71U,0.9
23,U12C C84U,0.15
24,U12C C90U,0.04

row,Variant,self-cleavage
1,U12C C98U,0.26
2,U12C C101A,1.72
3,U12C C101U,1.02
4,U12C C103A,1.01
5,U12C C111U,1.74
6,U12C C133A,1.67
7,U12C C145G,1.06
8,U12C C146G,1.03
9,U12C G25A,1.18
10,U12C G27A,0.87
11,U12C G32A,1.54
12,U12C G33C,1.28
13,U12C G33U,1.36
14,U12C G35A,1.62
15,U12C G36A,1.04
16,U12C G40U,1.2
17,U12C G41A,1.26
18,U12C G49U,1.35
19,U12C G54A,0.62
20,U12C G55A,0.64
21,U12C G58A,0.09
22,U12C G72U,1.13
23,U12C G74A,1
24,U12C G75A,1.46

row,Variant,self-cleavage
1,U12C G82A,1.68
2,U12C G86A,0.14
3,U12C G88A,0.1
4,U12C G93A,0.08
5,U12C G97A,0.22
6,U12C G105A,1.54
7,U12C G122U,1.04
8,U12C G126A,1.73
9,U12C G127C,1.84
10,U12C G139A,0.94
11,U12C U13A,0.27
12,U12C U13C,1.2
13,U12C U14A,0.81
14,U12C U14G,0.59
15,U12C U20C,1.24
16,U12C U23C,1.34
17,U12C U26G,0.58
18,U12C U29A,1.16
19,U12C U29C,1.44
20,U12C U39A,1.32
21,U12C U39C,1.4
22,U12C U46C,1.62
23,U12C U47A,0.71
24,U12C U47G,1.21

row,Variant,self-cleavage
1,U12C U52A,1.41
2,U12C U62A,0.13
3,U12C U62C,0.09
4,U12C U73A,1.75
5,U12C U73C,1.65
6,U12C U81A,1
7,U12C U81C,1.11
8,U12C U85C,0.12
9,U12C U87C,0.21
10,U12C U91C,0.92
11,U12C U96A,0.1
12,U12C U96C,0.19
13,U12C U100C,1.6
14,U12C U102A,1.66
15,U12C U108A,1.25
16,U12C U108C,1.66
17,U12C U109C,1.48
18,U12C U112C,1.26
19,U12C U115C,1.21
20,U12C U119C,1.64
21,U12C U119G,1.5
22,U12C U130A,1.49
23,U12C U134A,1.22
24,U12C U143C,1.46

row,Variant,self-cleavage
1,U12G A22C,1.68
2,U12G A42C,1.1
3,U12G A43C,1.02
4,U12G A43G,1.41
5,U12G A43U,0.81
6,U12G A50G,1.2
7,U12G A50U,1.16
8,U12G A57G,1.42
9,U12G A59U,1.15
10,U12G A64C,0.55
11,U12G A64G,0.52
12,U12G A65U,0.23
13,U12G A69U,0.08
14,U12G A77G,1.41
15,U12G A79G,1.25
16,U12G A92G,0.21
17,U12G A92U,0.62
18,U12G A94G,0.42
19,U12G A94U,0.24
20,U12G A107G,1.58
21,U12G A107U,0.98
22,U12G A117G,1.35
23,U12G A121U,1.31
24,U12G A129C,1.1

row,Variant,self-cleavage
1,U12G A129G,1.14
2,U12G A136U,0.76
3,U12G A138U,1.02
4,U12G A141G,1.22
5,U12G A142C,0.93
6,U12G A142G,0.83
7,U12G C19U,1.09
8,U12G C56U,0.22
9,U12G C61A,0.14
10,U12G C84U,0.2
11,U12G C98U,0.41
12,U12G C113U,0.66
13,U12G C116U,0.62
14,U12G C120A,1.49
15,U12G G32A,0.78
16,U12G G33A,1.47
17,U12G G35A,0.89
18,U12G G40A,1.41
19,U12G G55A,0.15
20,U12G G72A,0.9
21,U12G G80A,1.64
22,U12G G93A,0
23,U12G G97U,0.07
